Measurements reported in PMC10248529.

Experiments:
[1] = target: HAx3-tagged Cho1 (phosphatidylserine synthase from Candida albicans) (Candida albicans); assay: native gel or EMSA; BN-PAGE and anti-HA Western blot of Cho1-HAx3 pulled down with anti-HA beads and eluted harshly: 50 mM NaOH + 0.05% digitonin, then 1 M Tris pH 8.5
[2] = target: HAx3-tagged Cho1 (phosphatidylserine synthase from Candida albicans) (Candida albicans); assay: native gel or EMSA; BN-PAGE and anti-HA Western blot of SMA2000-solubilised membrane fractions (SMALPs), 1-4% SMA2000, 30 or 60 min, 37 °C

Q: For “HAx3-tagged Cho1 (phosphatidylserine synthase from Candida albicans) (from UniProt A0A1D8PF32 1-273) (enzyme)”, which stoichiometry N [1] is on record?
A: The stoichiometry N was 2.

Q: And the stoichiometry N [2]?
A: The stoichiometry N was 2.
